{"source": "paper PMC3345106", "origin": "cited, not measured here", "biological_target": "Cys34 (UniProt position 58, QYLQQCPFEDH)", "conditions": "HSA thiol in earlier reports, compared by the authors with their FA-free value"}
{"substance": "Human serum albumin (HSA) (Homo sapiens)", "values": [{"measurement": "pKa", "result": "~8"}]}
